Test results reported in patent US9944712B2, “TLR3 binding agents” (INNATE PHARMA, priority 2012, dated 2018).
Substitutions are numbered along the chain they refer to.

B1: 11E1: mouse anti-human TLR3 monoclonal antibody; VH SEQ ID NO: 3, VL SEQ ID NO: 4 (antibody, listed as Mus musculus, V domains shown)
VH: QVQLQQPGAELVRPGASVKLSCKASGYTFTNYWMNWVKQRPGQGLEWIGMIDPSDSETHYNQMFKDKATLTVDKSSSTAYMQLSSLTSEDSAVYYCARGGASSDYYYFDYWGQGTTLTVSSASTK
VL: ETTVTQSPASLSMAIGEKVTIRCITSTDIHDDINWYQQKPGEPPKLLISEGNTLRPGVPSRFSSSGYGTDFVFTIENMLSEDVADYYCLQSDNLPRTFGGGTKLEIKRT
B2: 7G11: rat anti-human TLR3 monoclonal antibody; VH SEQ ID NO: 47, VL SEQ ID NO: 48 (antibody, listed as Rattus norvegicus, V domains shown)
VH: EVQLQQYGAELGKPGTSVKLSCKVSGYNITYTYMHWVNQRPGKGLEWIGRIDPANGNTIYGEKFKNKATLTADTSSNTAYMQLSQLKSDDTAIYFCAMGEFDYFDHWGQGVMVTVSS
VL: DIQMTQSPASLSASLGETVSIECLASEDISNDLAWYQQKSGKSPQVLIYAASRLEDGVPSRFSGSGSGTRYSLKISGMQPEDEADYFCQQSYKYPVTFGSGTKLEIK
B3: 31F6: rat anti-human TLR3 monoclonal antibody; VH SEQ ID NO: 14, VL SEQ ID NO: 15 (antibody, listed as Rattus norvegicus, V domains shown)
VH: EVQLQQSGAELGKPGTSVKLSCKVSGYNIRYTYMHWVNQRPGKGLEWIGRIDPANGDSIYGEDFKTKATLTADTSSNTAYMQLSQLKSDDTAIYFCAMGEFDYFDYWGQGVMVTVSSASTK
VL: B2 VL with A9P, D28G, K39R, V46L, E55Q, S91N, V96L
B4: 32C4: rat anti-human TLR3 monoclonal antibody; VH SEQ ID NO: 25, VL SEQ ID NO: 26 (antibody, listed as Rattus norvegicus, V domains shown)
VH: EVQLQQYGAELGKPGTSVKLSCKVSGYNIWSTYIYWVNQRPGKGLEWIGRIDPANGNTIYAEKFKTKATLTADTSSNTAYMQLSQLKSDDTAIYFCAMGDHGGYVMDAWGQGASVTVSS
VL: DIQMTQSPGSLSASLGETVSIECLASEDIYSYLAWYQQKPGKSPQLLIYAANRLEDGVPSRFSGSGSGTQYSLKISGMQPEDEGDYFCLQGSEFPYTFGTGTKLELK
B5: 37B7: rat anti-human TLR3 monoclonal antibody; VH SEQ ID NO: 36, VL SEQ ID NO: 37 (antibody, listed as Rattus norvegicus, V domains shown)
VH: QVQLQQSGTELVKPGSSVKISCKASGYTFTSNYMHWIRQLPGNGLEWIGWIFPGDGDTNYNQKFNGKATLTADKSSSTAYMQLSSLTSEDYAVYFCARSDGDWYFDFWGPGTMVTVSS
VL: DIQMTQSPGSLSASLGETVTIQCQASEDIYSGLAWYQQKPRKSPQLLISAASRLQDGVPSRFSGSGSGTQYSLKISSMQTEDEGVYFCQQGVKYPNTFGPGTKLELK

Tests used:
[1] = test system: COPD mouse model; assay: COPD mouse model (Elastin and LPS); type: in vivo; conditions: drug combination study, FIG. 5E
Procedure: All mice were treated at days 0, 7, 14 and 21 with Elastin and LPS (i.n.), to induce COPD. At day 28 mice were sacrificed for analysis.
The cellular infiltrates into airways was measured by analysis of bronchoalveolar lavage (BAL) fluid by differential cell count on day 28. The oxygenation of venous blood was measured by gasometry on day 28. The level inflammatory mediators in BALF, through the analysis for protein levels of TNF-alpha, IL-6, IL-17A and IP-10 was performed by multiplex assay. […] Statistical analysis was performed on all data utilizing a Student's t test: ‘*’ p<0.05; ‘**’ p<0.005; ‘***’ p<0.0005.
Four groups of mice were treated as follows: • 1 group of mice with a vehicle (PBS, i.p., twice per week). • 1 group of mice with the anti-mouse TLR3 28G7 antibody administration (i.p., 500 μg/per mouse, […]; antagonist of PDE-4) (3 mg/kg, oral, five times per week). • 1 group of mice with both roflumilast and 28G7 antibody, each agent according to the schedule used as single agent.
All mice were treated with Elastin and LPS (i.n.), to induce COPD and sacrificed as in study A.
The cellular infiltrates into airways was measured by analysis of bronchoalveolar lavage (BAL) fluid by differential cell count as in Study A.

[2] = test system: TLR3 mutant polypeptides; assay: FACS staining of cells expressing TLR3 mutant polypeptides (epitope mapping); type: binding, human; conditions: for binding to wild type TLR3 and mutants K145E, D116R, E171A, K182E or N196A: FACS; for binding to TLR3 in presence of the mutation K145E or K182E: hybridoma clone screening
Procedure: Mutagenesis was performed on wild type human TLR3 inserted into a pcDNA3.1 vector. After sequencing, the vectors containing the mutated sequences were prepared as Maxiprep using the Promega PureYield™ Plasmid Maxiprep System. Vectors were then used for HEK-293T cell transfection using Invitrogen's Lipofectamine 2000 according to the manufacturer instructions.
All the Mx-R primers were used with the following 5′ primer […] (SEQ ID NO: 121). All the Mx-F primers were used with the following 3′ primer […] (SEQ ID NO: 122). The sequences amplified were run on agarose gel then purified using the Qiagen Gel Extraction kit. The two PCR product generated for each mutant were then ligated into a pcDNA3.1 vector, digested with the restriction enzyme NheI and NotI, with the InFusion system (Clontech) according to the manufacturer's instructions.
After sequencing, the vectors containing the mutated sequences were prepared as Maxiprep using the Promega PureYield™ Plasmid Maxiprep System. Vectors were then used for HEK-293T cell transfection using Invitrogen's Lipofectamine 2000 according to the manufacturer instructions.
(§1) The mature wild-type or mutant TLR3 sequence was fused to the CD32 transmembrane and intracellular domains as described by De Bouteiller et al. (2005) J. Biol. Chem. 280(46): 38133-38145. A first round of PCR was performed to introduce a V5 tag in N-terminal position of the TLR3-CD32 fusion protein and a second round—using the first PCR as a template—to introduce the TLR3 leader peptide in the construct. The PCR product was TA-cloned into the pGEMTeasy vector for sequencing and finally cloned into the pcDNA3.1 vector using the NheI and NotI restriction sites.
(§2) Following two wash cycles, cell MFI was analyzed on a FACS Canto II cytometer. With the aim to study the effect of pH on mAb affinity, staining was performed in staining buffer (0.2% BSA, 2 mM EDTA, 0.02% Sodium Azoture) pH7.4 or in citric acid-acidified staining buffer pH5.6.
Secondary screening was performed as in immunization #1, above. Potentially interesting hybridomas were cloned by limiting dilution techniques in 96-wells plates, and clones were tested in the same series of secondary screens as for hybridomas. With the aim to compare hybridomas to our reference anti-TLR3 mAbs, the hybridomas were amplified and their supernatants were purified. Purified mAbs were tested in a gene-reporter assay.
Antibodies were then tested for binding to further set of mutants in the N-terminal portion of TLR3 to identify new epitopes. Antibodies were therefore tested for binding to TLR3 mutants. TLR3 mutant polypeptides having mutations in positions Q44H and V45I, R64Q and R65Q, T86S and K89Q, K97I and M100L, K117Q and A120V, Q136H, N140S, V144K and K145N, K147A, K163A, Q167G, Q184L and K187R, Q184L and K187Q, D192E and A195G, Q208P and 1209L, H218Q, A219T, G234N and S236H, L243W and A246S, S112A. Q113S. and S115A, and K137S and K139A (reference to SEQ ID NO: 1) were prepared as described herein in the Materials and Methods and anti-TLR3 antibody staining to cells expressing TLR3 mutant polypeptides was assessed by FACS.

[3] = molecular target: human TLR3 (Homo sapiens, UniProt O15455); assay: 293T-TLR3-ISRE luciferase reporter assay; type: cell-based; conditions: dsRNA TLR3 agonists
From the text: A reporter gene assay using as promoter ISRE (IFN-stimulated response element) and as reporter gene and protein luciferase was set up. A 293T cell line (ATCC, #CRL-1573) was stably transfected with pISRE-luc plasmid (#219089—Stratagene), further selected by cloning as inducing optimal response to IFN-alpha stimulation and referred to as control 293T-ISRE. This cell line was further stably transfected with pUNO-humanTLR3 plasmid (#puno-htlr3—InVivogen) and referred to as 293T-TLR3-ISRE.
Efficacy assay was performed as described: on day 0, cells are seeded at 4×10^5 cells/mL in complete culture medium in 96-well culture plate (100 μl/well). Cells are first incubated at 37° C. for 20 hours, then 50 μL of medium are discarded and cells are activated with 25 μl/well final of fixed amounts of polyAU together with increasing concentrations of anti-TLR3 antibodies. Cells incubated with fresh medium will be used as background luciferase activity (50 μl/well). Cells are incubated at 37° C. for 6 hours. 100 μL of freshly thawed Steady Glo (Promega) are added to each well, plates were incubated 10 min at RT in the dark and the light emitted in each well is quantified as Count Per Second (CPS) on a gamma-counter (TopCount) apparatus.
Antibodies were tested for inhibition of TLR3 signaling in a luciferase based reporter gene activity (293T-TLR3-ISRE). Engagement of TLR3 receptor using TLR3-agonists such as poly (I:C) has been reported to activate the type-IFN pathway including the promoter ISRE (Wietek et al. J. Biol. Chem., 278 (51), p50923, 2003). Briefly, dsRNA TLR3 agonists were used to induce TLR3 signaling in the reporter assay in the presence of anti-TLR3 antibodies, and TLR3 signaling was assessed. […] Each antibody is compared with reference antibody 31C3.

[4] = molecular target: T1, human TLR3 solely at the cell surface (TLR3/CD32-expressing 293T cells) (Homo sapiens, UniProt O15455); assay: Titration on HEK293T cells expressing TLR3 ECD-CD32 solely at the cell surface (FACS); type: binding; conditions: neutral pH
T1 construct: transiently transfected with the wild-type or mutant TLR3 ECD-CD32 construct; expressed in transfected cells; host or cells: HEK293T, transient, pcDNA3.1
Procedure: as §1, §2
Additionally, binding (e.g. affinity) to cell surface TLR3 at neutral pH may differ from that of endosomally-expressed TLR3 at acidic pH. Antibodies were tested for binding to cells expressing human TLR3 solely at the cell surface (TLR3/CD32-expressing 293T cells), at neutral pH conditions since pH could potentially affect TLR3 conformation.

Row | Molecule | infiltration of neutrophils into the airways (BAL differential cell count) ([1]; 28G7 i.p. 500 μg twice per week, roflumilast 3 mg/kg oral five times per week) | BAL macrophages and lymphocytes [1] | binding to wild type TLR3 and mutants K145E, D116R, E171A, K182E or N196A [2] | binding to TLR3 in presence of the mutation K145E or K182E [2] | inhibition of dsRNA-induced TLR3 signaling, potency compared with antibody 31C3 [3] | binding to surface-expressed human TLR3 [4]
1 | O=C(Nc1c(Cl)cncc1Cl)c1ccc(OC(F)F)c(OCC2CC2)c1 [Roflumilast, roflumilast] | decreased infiltration of neutrophils | decreases in macrophages | – | – | – | –
2 | B1 | – | – | did not show any loss of binding | bound TLR3 | more potent | strong binding
3 | B2 | – | – | did not show any loss of binding | bound TLR3 | more potent | strong binding
4 | B3 | – | – | did not show any loss of binding | bound TLR3 | more potent | strong binding
5 | B4 | – | – | did not show any loss of binding | bound TLR3 | more potent | strong binding
6 | B5 | – | – | did not show any loss of binding | bound TLR3 | more potent | –
